Measurements: patent US20040101919A1 (TEXAS A AND M UNIVERSITY SYSTEM, published 2004)

T1: human fibrinogen (human, UniProt P02671 20-629; P02675 31-491; P02679 27-437)
T1 sequence 1: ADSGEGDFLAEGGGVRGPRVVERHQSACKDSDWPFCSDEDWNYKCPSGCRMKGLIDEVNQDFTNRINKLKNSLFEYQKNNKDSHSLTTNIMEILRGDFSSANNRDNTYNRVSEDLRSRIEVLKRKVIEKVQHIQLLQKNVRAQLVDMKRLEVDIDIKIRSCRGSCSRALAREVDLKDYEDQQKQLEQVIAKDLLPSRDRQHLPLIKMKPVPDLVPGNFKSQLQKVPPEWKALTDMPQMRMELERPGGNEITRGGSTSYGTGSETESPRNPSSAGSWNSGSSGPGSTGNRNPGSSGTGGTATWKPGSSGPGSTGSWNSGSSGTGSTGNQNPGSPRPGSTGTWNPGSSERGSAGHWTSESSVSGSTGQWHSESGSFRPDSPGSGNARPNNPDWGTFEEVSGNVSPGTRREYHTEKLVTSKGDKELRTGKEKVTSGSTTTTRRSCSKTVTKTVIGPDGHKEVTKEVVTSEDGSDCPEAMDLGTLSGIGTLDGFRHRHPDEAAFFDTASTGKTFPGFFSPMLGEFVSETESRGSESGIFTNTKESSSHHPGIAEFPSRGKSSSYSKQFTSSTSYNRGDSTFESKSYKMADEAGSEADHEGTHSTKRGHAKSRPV
T1 sequence 2: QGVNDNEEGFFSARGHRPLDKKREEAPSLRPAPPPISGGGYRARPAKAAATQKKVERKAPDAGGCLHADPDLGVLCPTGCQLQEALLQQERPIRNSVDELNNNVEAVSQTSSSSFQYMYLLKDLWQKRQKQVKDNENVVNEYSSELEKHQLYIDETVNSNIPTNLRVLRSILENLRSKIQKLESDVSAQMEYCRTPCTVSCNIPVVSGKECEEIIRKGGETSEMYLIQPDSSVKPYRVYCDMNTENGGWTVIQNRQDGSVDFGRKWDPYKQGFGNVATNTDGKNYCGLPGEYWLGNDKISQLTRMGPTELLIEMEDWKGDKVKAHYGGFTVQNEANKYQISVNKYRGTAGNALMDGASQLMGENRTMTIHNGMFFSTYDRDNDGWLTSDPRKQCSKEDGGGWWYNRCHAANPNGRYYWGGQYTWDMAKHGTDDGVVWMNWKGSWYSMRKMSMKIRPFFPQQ
T1 sequence 3: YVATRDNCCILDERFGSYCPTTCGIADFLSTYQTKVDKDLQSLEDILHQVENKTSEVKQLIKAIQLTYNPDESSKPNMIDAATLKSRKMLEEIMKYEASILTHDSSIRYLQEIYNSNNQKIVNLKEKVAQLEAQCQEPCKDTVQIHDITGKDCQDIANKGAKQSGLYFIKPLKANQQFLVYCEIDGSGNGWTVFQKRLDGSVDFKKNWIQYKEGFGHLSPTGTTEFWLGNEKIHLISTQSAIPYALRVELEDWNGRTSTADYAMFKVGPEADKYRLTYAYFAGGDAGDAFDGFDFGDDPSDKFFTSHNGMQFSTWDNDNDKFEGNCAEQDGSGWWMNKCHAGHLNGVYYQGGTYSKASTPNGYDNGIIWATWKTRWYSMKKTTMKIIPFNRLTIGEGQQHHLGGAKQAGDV

B1: EF1093 A domain (recombinant EF1093), N-terminal His6-tag fusion protein (other)
chain: EENGESAQLVIHKKKMTDLPDPLIQNSGKEMSEFDKYQGLADVTFSIYNVTNEFYEQRAAGASVDAAKQAVQSLTPGKPVAQGTTDANGNVTVQLPKKQNGKDAVYTIKEEPKEGVVAATNMVVAFPVYEMIKQTDGSYKYGTEELAVVHIYPKNVVANDGSLHVKKVGTAENEGLNGAEFVISKSEGSPGTVKYIQGVKDGLYTWTTDKEQAKRFITGKSYEIGENDFTEAENGTGELTVKNLEVGSYILEEVKAPNNAELIENQTKTPFTIEANNQTPVEKTVKNDTSKVDKTTPSLDGKDVAIGEKIKYQISVNIPLGIADKEGDANKYVKFNLVDKHDAALTFDNVTSGEYAYALYDGDTVIAPENYQVTEQANGFTVAVNPAYIPTLTPGGTLKFVYFMHLNEKADPTKGFKNEANVDNGHTDDQTPPTVEVVTGGKRFIKVDGDVTATQALAGASFVVRDQNSDTANYLKIDETTKAATWVKTKAEATTFTTTADGLVDITGLKYGTYYLEETVAPDDYVLLTNRIEFVVNEQSYGTTENLVSPEKVPNKHK
notes: not shown: N-terminal His6-tag from vector pQE-30
B2: EF0089 A domain (EF0089A), N-terminal His6-tag fusion protein (other)
chain: EEVNSDGQLTLGEVKQTSQQEMTLALQGKAQPVTQEVVVHYSANVSIKAAHWAAPNNTRKIQVDDQKKQIQIELNQQALADTLVLTLNPTATEDVTFSYGQQQRALTLKTGTDPTESTAITSSPAASANEGSTEEASTNSSVPRSSEETVASTTKAIESKTTESTTVKPRVAGPTDISDYFTGDETTIIDNFEDPIYLNPDGTPATPPYKEDVTIHWNFNWSIPEDVREQMKAGDYFEFQLPGNLKPNKPGSGDLVDAEGNVYGTYTISEDGTVRFTFNERITSESDIHGDFSLDTHLNDSDGRGPGDWVIDIPTQEDLPPVVIPIVPDTEQQIDKQGHFDRTPNPSAITWTVDINQAMKDQTNPTVTETWPTGNTFKSVKVYELVMNLDGTIKEVGRELSPDEYTVDKNGNVTIKGDTNKAYRLEYQTTIDEAVIPDGGGDVPFKNHATLTSDNNPNGLDAEATVTATYGKMLDKRNIDYDEANQEFTWEINYNYGEQTIPKDQAVITDTMGDNLTFEPDSLHLYSVTFDDKGNEVVGAELVEGKDYKVVINGDGSFAIDFLHDVTGAVKIDYKTKVDGIVEGDVAVNNRVDVGTGQHSEDDGTASQQNIIKNTGAVDYQNSTIGWTLAVNQNNYLMENAVITDTYEPVPGLTMVPNSLVVKDTTTGAQLTLGKDFMVEITRNADGETGFKVSFIGAYAKTSDAFHITYTTFFDVTELDANNPALDHYRNTAAIDWTDEAGNNHHSEDSKPFKPLPAFDLNAQKSGVYNAVTKEITWTIAVNLSNNRLVDAFLTDPILTNQTYLAGSLKVYEGNTKPDGSVEKVKPTQPLTDITMEEPSEKNQNTWRVDFPNDSRTYVIEFKTSVDEKVIEGSASYDNTASYTNQGSSRDVTGKVSIQHGGESVKKGGEYHKDDPDHVYWHVMINGAQSVLDDVVITDTPSPNQVLDPESLVIYGTNVTEDGTITPDKSVILEEGKDYTLEVTTDNETGQQKIVVKMAHIEAPYYMEYRSLVTSSAAGSTDTVSNQVSITGNGSEVVHGDDNGDVVVDIDHSGGHATGTKGKIQLKKTAMDETTILAGAHFQIWDQAKTQVLREGTVDATGVITFGG
notes: Expressed in E. coli from pQE-30 and purified; not shown: N-terminal His6-tag from vector pQE-30
B3: EF1269 A domain (EF1269A), N-terminal His6-tag fusion protein (other)
chain: ETGYAQTEPTSTSETNQISATPNVVPRKQVGNIVTAIQLTDKEGNPLGTINQYTDIYLRIEFNLPDNTVNSGDTSVITLPEELRLEKNMTFNVVDDTGTVVAIAQTDVANKTVTLTYTDYVENHANISGSLYFTSLIDFENVENESKIPIYVTVEGEKIFAGDLDYQGEGDDVNEKFSKYSWFIEDDPTEIYNVLRINPTGQTYTDLEVEDVLKTESLSYMKDTMKIERGQWTLDGNAIWQFTPEEDITDQLAVQYGPDDRNFSVHFGNIGTNEYRITYKTKIDHLPEKGETFTNYAKLTENQTVVEEVEVSRVSQTGGGEANGEQYVVEIHKEDEAGQRLAGAEFELIRNSTNQTVAKITTDQNGTAIVKGLLKDNYTLVETKAPTGYQLSQNKIPITPEDFGKNLVALKTVVNHKISYQPVAASFLAGKVLLGKPLKDAEFQFELLDEKGTVLETVSNDTLGKIQFSPLTFETPGNYQYTIREVNTQQTGVSYDTHNLQVQVTVEALLGNLVATTQYDGGQVFTNHYTPEKPIESTTPPTSGTTDTTTNSTTETTSITIEKQAIRNKE
notes: as for B1
B4: EF2224 A domain (EF2224A), N-terminal His6-tag fusion protein (other)
chain: QEVTSDAEKTVEKDGLKVIGKIEDTSSQEDIKTVTYEVTNTRDVPIKDLILKQKNTNDSPIKFVLDTLSEERGPTSLEEQAKVETNEKDQTTDIKLLNLQPNSTRKITINGQITTKASNKLLVSVLIEDNEKGTLVIDLPSKDILADKESVSKEKQETSETKVENQANETASSTNEMTATTSNETKPEAGKAIESIQETALTQATESPEQPPLKAQPTGPLVPPTPGRGFNTPIYQSVHKGELFSTGNTNLKIANENTAAAQTFLNTRGASSGYAINNFPLEFADVDNDPNTYNSSRAYIDLNGAKEIAWAGLFWSASRYKGPAYGTNLSDEEISAPVQFTTPNGTVQRVSPQRYHRIDQDATNPGQRFGYNNTGFSNYADVTSILQGDKSATGSYTLADIPMTSSLNGQYQYYNFSGWSLFVVTKDQASKSRAFSIYYGARGNAAGTNNEFTMSNFLTAKQGNLDPIVTWFTVQGDKYWTGDNAQIKNSAGTWVNISNTLNPVNNAMNATVTDNDEHMVDKYPGKFAPDHPNFLDIDIDRMAIPEGVLNAGQNQINFRTTSSGDDYSTNAIGFAVNAETPEFEIKKEIVEPKETYKVGETITYRVSLKNTKADSEAINSVSKDALDGRLNYLPGSLKIISGPNSGEKTDASGDDQAEYDETNKQIIVRVGNGATATQGGSYKADTAETIYEFKARINERAKANELVPNSATVEAVDILTSAKVNETSNIVEAKIADEQVT
notes: as for B2

Tests used:
human fibrinogen [1] = target: T1, human fibrinogen; assay: ELISA, ECM protein coated, recombinant protein detected with mouse antiserum; positive if signal 2.5x background
human fibrinogen [2] = target: T1, human fibrinogen; assay: ELISA, ECM protein coated, His-tag protein detected with anti-His6 mAb
Method: Plates were washed once with PBS and blocked with 1% BSA in PBS for 1 h. Fifty □l of 5 and 10 µM concentrations of purified His-tag proteins in the blocking buffer were added and incubated at ambient temperature for 2 h. Plates were washed three times with 0.05% Tween20 in PBS and incubated 2 h with 1:3000 dilution of His₆-tag monoclonal antibody (Amersham Biosciences Corp., Piscataway, N.J.) in blocking buffer. After three washes, 1:3000 dilution of alkaline phosphatase-conjugated anti-mouse antibody in blocking buffer was added to the wells and incubated 2 h. Finally, signal was detected with nitrobluetetrazolium (NBT) and 5-bromo-4-chloro-3-indolyl-phosphate (BCIP) in 0.1 M NaHCO₃, 1 mM MgCl₂, pH 9.8. Absorbance at 405 nm was measured with an ELISA reader

human fibrinogen [3] = target: T1, human fibrinogen; assay: screen of binding to ECM proteins; format not detailed for EF1269

Binder | binding result (human fibrinogen [2]) | other results
B1 | – | binding result (human fibrinogen [1]): binds
B2 | binds | –
B3 | – | binding result (human fibrinogen [3]): no binding
B4 | binds | –
